According to patent US20210404962A1:

Columns and labels:
[1] = biological target: GFP1-10 (large fragment of GFP) (Aequorea victoria (Water jellyfish) (Mesonema victoria)) [GFP: P42212]; assay: fluorescence reconstitution, pseudo-first order, one phase association fit; GFP11 concentration not stated
[2] = biological target: GFP1-10 (large fragment of GFP) (Aequorea victoria (Water jellyfish) (Mesonema victoria)) [GFP: P42212]; assay: fluorescence increase over time with varied GFP11 peptide and purified GFP1-10 at 3 mM, one site binding model
[3] = biological target: GFP1-10 (large fragment of GFP) (Aequorea victoria (Water jellyfish) (Mesonema victoria)) [GFP: P42212]; assay: fluorescence reconstitution, pseudo-first order, one phase association fit
[4] = biological target: GFP1-10 (large fragment of GFP) (Aequorea victoria (Water jellyfish) (Mesonema victoria)) [GFP: P42212]; assay: stopped-flow fluorescence reconstitution, pseudo-first order, one phase association fit; 50 nM GFP11, excess GFP1-10
[5] = biological target: GFP1-10 (large fragment of GFP) (Aequorea victoria (Water jellyfish) (Mesonema victoria)) [GFP: P42212]; assay: fluorescence reconstitution kinetics, calculated from kobs at varied GFP11 concentrations

“GFP11 peptide (chemically synthesized small fragment of split GFP; variant not stated)” gave a kobs [1] of 0.007 s⁻¹, a Kd [2] of 481 µM and a half time [3] of 95 s. It also gave a kobs [4] of 0.003 s⁻¹ and a kon [5] of 760000 M⁻¹ s⁻¹.
